{"source": "patent US20160068613A1"}
{"target": "human neonatal Fc-receptor (FcRn) (human) (UniProt P55899)", "sequence (P55899 24-297 limits assumed, chain 1 of 2)": "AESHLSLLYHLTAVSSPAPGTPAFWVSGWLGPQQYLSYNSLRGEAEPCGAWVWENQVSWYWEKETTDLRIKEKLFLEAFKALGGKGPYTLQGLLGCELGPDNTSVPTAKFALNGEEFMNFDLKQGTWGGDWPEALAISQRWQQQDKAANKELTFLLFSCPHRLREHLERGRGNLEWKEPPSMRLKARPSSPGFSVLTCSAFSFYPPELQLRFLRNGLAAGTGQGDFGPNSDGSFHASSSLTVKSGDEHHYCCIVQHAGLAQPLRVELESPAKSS", "sequence (P61769 21-119 limits assumed, chain 2 of 2, further chain)": "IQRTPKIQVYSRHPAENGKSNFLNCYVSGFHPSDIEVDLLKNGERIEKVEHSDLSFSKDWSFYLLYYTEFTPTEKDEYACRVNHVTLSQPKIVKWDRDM", "test": "FcRn affinity chromatography", "units": {"FcRn-affinity column retention time": "min", "retention time": "min", "retention time on FcRn affinity column": "min"}}
{"substance": "IgG1 Fc-region, symmetric, L234A/L235A/P329G + Y436A", "FcRn-affinity column retention time": 41.3}
{"substance": "anti-HER2 antibody, symmetrically modified, D98E", "retention time": 46.2}
{"substance": "anti-HER2 antibody, symmetrically modified, E258H", "retention time": 45.6}
{"substance": "anti-HER2 antibody, symmetrically modified, E430H", "retention time": 46.4}
{"substance": "anti-HER2 antibody, symmetrically modified, K288E", "retention time": 45.2}
{"substance": "anti-HER2 antibody, symmetrically modified, K290H", "retention time": 46.2}
{"substance": "anti-HER2 antibody, symmetrically modified, K317H", "retention time": 46.3}
{"substance": "anti-HER2 antibody, symmetrically modified, L309H", "retention time": 45.5}
{"substance": "anti-HER2 antibody, symmetrically modified, N434H", "retention time": 52}
{"substance": "anti-HER2 antibody, symmetrically modified, Q311H", "retention time": 46.3}
{"substance": "anti-HER2 antibody, symmetrically modified, R255D", "retention time": 41.4}
{"substance": "anti-HER2 antibody, symmetrically modified, T256H", "retention time": 46}
{"substance": "anti-HER2 antibody, wild-type", "retention time": 46.3}
{"substance": "bispecific anti-VEGF/ANG2 antibody (knobs-into-holes), no FcRn affecting mutation (bispecific antibody)", "retention time on FcRn affinity column": 51.8}
{"substance": "bispecific anti-VEGF/ANG2 antibody (knobs-into-holes), one chain with H310A (bispecific antibody)", "retention time on FcRn affinity column": 48.4}
{"substance": "bispecific anti-VEGF/ANG2 antibody (knobs-into-holes), one chain with H310A/H433A/Y436A (bispecific antibody)", "retention time on FcRn affinity column": 46.7}
{"substance": "bispecific anti-VEGF/ANG2 antibody (knobs-into-holes), one chain with H435A (bispecific antibody)", "retention time on FcRn affinity column": 48.8}
{"substance": "bispecific anti-VEGF/ANG2 antibody (knobs-into-holes), one chain with I253A (bispecific antibody)", "retention time on FcRn affinity column": 48.8}
{"substance": "bispecific anti-VEGF/ANG2 antibody (knobs-into-holes), one chain with L251D/L314D/L432D (bispecific antibody)", "retention time on FcRn affinity column": 46.3}
{"substance": "bispecific anti-VEGF/ANG2 antibody (knobs-into-holes), one chain with M252Y/S254T/T256E (bispecific antibody)", "retention time on FcRn affinity column": 56.2}
